Results as given in publication PMC12412624, “Engineered Cas12j‐8 is a Versatile Platform for Multiplexed Genome Modulation in Mammalian Cells”.
Changes are numbered by the printed parent chain.

What was measured:
[1] = test system: T1, dCas12j-8 WT D369A;E567A;D658A (bacteriophage (metagenome)); conditions: HEK293T cells; panel 1c (compare within a panel only); scale: mean GFP / mean GFP of wild type, printed, no background subtraction
T1 sequence: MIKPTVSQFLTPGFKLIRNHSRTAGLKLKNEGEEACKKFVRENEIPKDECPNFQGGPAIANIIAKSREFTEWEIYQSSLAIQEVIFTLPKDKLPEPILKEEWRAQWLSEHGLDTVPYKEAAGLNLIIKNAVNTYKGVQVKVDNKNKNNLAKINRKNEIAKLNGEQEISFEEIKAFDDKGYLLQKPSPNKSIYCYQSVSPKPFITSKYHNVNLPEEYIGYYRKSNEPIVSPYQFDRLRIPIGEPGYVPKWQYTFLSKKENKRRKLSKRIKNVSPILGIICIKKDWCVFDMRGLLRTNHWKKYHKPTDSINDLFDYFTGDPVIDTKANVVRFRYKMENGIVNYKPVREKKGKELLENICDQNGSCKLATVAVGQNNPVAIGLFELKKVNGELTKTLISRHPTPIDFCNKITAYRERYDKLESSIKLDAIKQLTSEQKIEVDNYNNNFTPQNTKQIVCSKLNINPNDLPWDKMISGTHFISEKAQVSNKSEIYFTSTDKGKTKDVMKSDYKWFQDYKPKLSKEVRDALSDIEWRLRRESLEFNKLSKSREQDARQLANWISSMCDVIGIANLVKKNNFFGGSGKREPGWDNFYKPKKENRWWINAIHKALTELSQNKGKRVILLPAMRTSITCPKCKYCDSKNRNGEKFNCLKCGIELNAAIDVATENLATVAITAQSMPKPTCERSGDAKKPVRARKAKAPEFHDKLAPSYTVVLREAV

[2] = test system: T2, dCas12j-8 E258R+D523R E258R;D523R;D369A;E567A;D658A (bacteriophage (metagenome)); conditions: HEK293T cells; panel 1d (compare within a panel only); scale: mean GFP / mean GFP of wild type, printed, no background subtraction
T2 sequence: T1 sequence with E258R, D523R

[3] = test system: T3, dCas12j-8 E119R E119R;D369A;E567A;D658A (bacteriophage (metagenome)); conditions: HEK293T cells; panel 1c (compare within a panel only); scale: mean GFP / mean GFP of wild type, printed, no background subtraction
T3 sequence: T1 sequence with E119R

[4] = test system: T4, dCas12j-8 E609R E609R;D369A;E567A;D658A (bacteriophage (metagenome)); conditions: HEK293T cells; panel 1c (compare within a panel only); scale: mean GFP / mean GFP of wild type, printed, no background subtraction
T4 sequence: T1 sequence with E609R

“CUUUCAAGACUAAUAGAUUGCUCCUUACGAGGAGACACUCCCUAUCAGUGAUAGAG / TTNACTCCCTATCAGTGATAGAG / CTCTATCACTGATAGGGAGTNAA [TetO]” was tested, and the binding signal [1] was 1, the binding signal [2] was 2.67 and the binding signal [3] was 1.08. For the same sequence, the binding signal [4] was 0.336.
